# ± gives the uncertainty stated by the source.
# Assay: self-splicing fitness, log relative to wild type (ln ratio); higher = more splicing; Tetrahymena group I intron in knt gene, E. coli kanamycin selection, DiMSum; sequences stand for … in CUCUCU…GGAGGGAAAAGUUAUCAGGCAUGCACCUGGUAGCUAGUCUUUAAACCAAUAGAUUGCAUCGGUUUAAAAGGCAAGACCGUCAAAUUGCGGGAAAGGGGUCAACAGCCGUUCAGUACCAAGUCUCAGGGGAAACUUUGAGAUGGCCUUGCAAAGGGUAUGGUAAUAAGCUGACGGACAUGGUCCUAACCACGCAGCCAAGUCCUAAGUCAACAGAUCUUCUGUUGAUAUGGAUGCAGUUCACAGACUAAAUGUCGGUCGGGGAAGAUGUAUUCUUCUCAUAAGAUAUAGUCGGACCUCUCCUUAAUGGGAGCUAGCGGAUGAAGUGAUGCAACACUGGAGCCGCUGGGAACUAAUUUGUAUGCGAAAGUAUAUUGAUUAGUUUUGGAGUACUCGUGGUCG
# Method in brief: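 The eight P1ex-region nucleotides of an intron in the knt kanamycin-resistance gene on pET-22b(+) were all randomised and the library put into E. coli BL21(DE3). Six replicate transformations were grown overnight at 37°C or 30°C on LB agar with or without 25 μg/mL kanamycin, together with 100 μg/mL carbenicillin, 50 μM IPTG and 0.2% rhamnose. Colonies were pooled and amplicon-sequenced on an Illumina HiSeq 2500. Fitness from DiMSum is the error-weighted combination of wild-type-normalised replicate fold changes, kanamycin over none.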
Sequence,self-splicing fitness (ln) (30 °C),self-splicing fitness (ln) (37 °C)
UCUCAGCAAUAUUACGGUCU,-3.23 ± 0.2,-1.74 ± 0.15
GCAUAGCAAUAUUACGUGCU,-3.32 ± 0.15,-3.44 ± 0.26
UCAUAGCAAUAUUACGUUGU,-4.35 ± 0.23,-2.77 ± 0.21
AUGGAGCAAUAUUACGCGCC,–,-1.2 ± 0.34
AGGCAGCAAUAUUACGAGAC,-1.96 ± 0.13,-2.65 ± 0.22
UUGUAGCAAUAUUACGCCCU,-0.23 ± 0.24,-0.0821 ± 0.2
GGCGAGCAAUAUUACGCGGU,-3.13 ± 0.21,-1.69 ± 0.22
UCCAAGCAAUAUUACGAAUU,-3.42 ± 0.14,-2.5 ± 0.16
GGAAAGCAAUAUUACGGGUC,-3.66 ± 0.24,-1.92 ± 0.14
ACUUAGCAAUAUUACGCGCC,-1.35 ± 0.18,-0.348 ± 0.19
CUAAAGCAAUAUUACGAGAU,-2.72 ± 0.16,-2.05 ± 0.23
UCUUAGCAAUAUUACGAUUG,-2.74 ± 0.22,-1.23 ± 0.18
CUCCAGCAAUAUUACGUCUA,-4.32 ± 0.24,-3.05 ± 0.18
CUGAAGCAAUAUUACGUGGG,-2.66 ± 0.095,-1.89 ± 0.11
GCACAGCAAUAUUACGGGUU,-1.17 ± 0.041,-0.667 ± 0.055
UAGUAGCAAUAUUACGGACG,-2.09 ± 0.12,-0.623 ± 0.13
UGAUAGCAAUAUUACGGAGA,-2.83 ± 0.33,-1.68 ± 0.42
AUUAAGCAAUAUUACGCAAA,-1.78 ± 0.23,-1.32 ± 0.18
UAAGAGCAAUAUUACGGAUA,-2.84 ± 0.44,-1.54 ± 0.4

Sequence,self-splicing fitness (ln) (30 °C),self-splicing fitness (ln) (37 °C)
CAAGAGCAAUAUUACGUGUA,-3.48 ± 0.17,-2.42 ± 0.17
AGGUAGCAAUAUUACGCAUC,-3.221 ± 0.027,-1.72 ± 0.038
UUCUAGCAAUAUUACGUACA,-1.39 ± 0.19,-0.376 ± 0.22
AUCCAGCAAUAUUACGCUGU,-2.12 ± 0.14,-2.02 ± 0.14
GCCCAGCAAUAUUACGUCAG,-3.98 ± 0.2,-2.82 ± 0.23
CAGUAGCAAUAUUACGUUUU,-3.8 ± 0.24,-3.01 ± 0.24
CCACAGCAAUAUUACGAAUG,-1.11 ± 0.061,-0.833 ± 0.071
GAGGAGCAAUAUUACGCCGA,-1.95 ± 0.33,-1.77 ± 0.28
CCUUAGCAAUAUUACGUGAU,-3.66 ± 0.2,-2 ± 0.24
AGAAAGCAAUAUUACGGGCU,-1.04 ± 0.12,-0.993 ± 0.13
GGUAAGCAAUAUUACGCCAG,-4.42 ± 0.27,-2.13 ± 0.29
GCAUAGCAAUAUUACGAUCU,-0.849 ± 0.075,-0.178 ± 0.081
CGAUAGCAAUAUUACGAGAG,-2.05 ± 0.2,-2.66 ± 0.26
AUAGAGCAAUAUUACGCUUU,-1.68 ± 0.13,-1.58 ± 0.15
ACACAGCAAUAUUACGGUUU,-1.05 ± 0.04,-0.00178 ± 0.06
CGGCAGCAAUAUUACGACAC,-3.52 ± 0.24,-2.65 ± 0.21
GCCCAGCAAUAUUACGAGAU,-1.54 ± 0.12,-0.957 ± 0.091
CCACAGCAAUAUUACGUUAG,-1.56 ± 0.062,-0.188 ± 0.071
UACAAGCAAUAUUACGAAUU,-2.48 ± 0.16,-2.99 ± 0.26
